Measurements: patent US7267978, “Chimeric transcriptional regulatory element compositions and methods for increasing prostate-targeted gene expression” (The Regents of the University of California)

Columns and labels:
[1] = target: Androgen receptor full length (fAR) (UniProt P10275); experiment: footprint; details: 60% protection at 14 nM; cooperative, within enhancer fragment
[2] = target: Androgen receptor DNA-binding domain (ARDBD, aa 549-650) (Homo sapiens) (UniProt P10275); experiment: footprint; details: 75% occupancy at 1.4 uM
Sequence of Androgen receptor DNA-binding domain (ARDBD, aa 549-650) (Homo sapiens) (P10275 550-651): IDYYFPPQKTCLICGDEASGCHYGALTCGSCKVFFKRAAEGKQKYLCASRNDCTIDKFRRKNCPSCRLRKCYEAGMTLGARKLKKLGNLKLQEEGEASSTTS

[3] = target: T1, Androgen receptor DNA-binding domain (ARDBD, aa 549-650) (Homo sapiens, UniProt P10275 P10275:550-651); experiment: footprint; lower affinity than ARE III; details: tags: N-terminal His6, C-terminal heart muscle kinase site; E. coli; chain copies: 2
T1 sequence (P10275 550-651, one chain of several): as the sequence (P10275 550-651) above
Experimental: The binding reactions for DNase I footprinting were as described previously (Chi et al., 1995). Indicated amounts of recombinant AR DNA binding domain (ARDBD), FLAG-tagged AR, and crude nuclear extracts from f-LNCaP cells were incubated in 13 μl of buffer containing 12.5 mM HEPES, pH 7.9, 12.5% glycerol, 5 mM MgCl_2, 70 mM KCl, 0.2 mM EDTA, 60 mM mercaptoethanol, 0.5 mg/ml bovine serum albumin, and 200 ng of poly(dG-dC). After 45 min at 30° C., DNase I was added to the reactions. The cleavage reactions were terminated after 1 min by addition of 100 μl of stop buffer containing 400 mM sodium acetate, pH 5.2, 0.2% SDS, 10 mM EDTA, 50 μg/ml yeast tRNA, and 100 μg/ml proteinase K. The mixtures were incubated at 50° C. for 15 min, extracted with phenol/chloroform, and the products precipitated with ethanol. Precipitates were dissolved in formamide loading buffer and analyzed on 8% polyacrylamide/urea sequencing gels. The cleavage ladders were visualized by exposure to XAR-5 film or by PhosphorImager analysis.
A ^32P-labeled PCR™ fragment from −4309 to −4011 of the enhancer was subjected to DNase I footprinting studies. […] A weak footprint was also noticed below site V that had not been detected with ARDBD in earlier experiments.

[4] = target: T1, Androgen receptor DNA-binding domain …; experiment: affinity column; retained at 0.5 M KCl, eluted at 0.8 M KCl; details: tags: N-terminal His6, C-terminal heart muscle kinase site; E. coli; chain copies: 2; label: biotin
Experimental: The *Escherichia coli* strain BL21(DE3) was transformed with pET11dHis_6ARDBD. 0.1 liter of cells was grown to an $A600$ of 0.6 and induced with 0.5 mM isopropyl-1-thio-β-D-galactopyranoside and 10 μM ZnCl_2 for 3 h. After harvesting, cells were resuspended in 5 ml of Buffer A (20 mM HEPES, pH 7.9, 20% glycerol, 10 μM ZnCl_2, 0.5 mM phenylmethylsulfonyl fluoride) containing 0.1 M KCl and lysed by sonication. The supernatant was incubated with 1.5 ml of Ni-NTA-agarose (Qiagen) resin in batch, rocked gently for 30 min at 4° C., and then loaded on to a small Bio-Rad Econo-column. After successively washing the resin with 15 ml of Buffer A containing 0.1 M KCl, and 15 ml of Buffer A containing 0.1 M KCl and 20 mM imidazole, ARDBD was eluted with Buffer A containing 0.1 M KCl and 150 mM imidazole. […]

Sequence of Androgen receptor full length (fAR) (P10275 whole entry, the tested form may be a part): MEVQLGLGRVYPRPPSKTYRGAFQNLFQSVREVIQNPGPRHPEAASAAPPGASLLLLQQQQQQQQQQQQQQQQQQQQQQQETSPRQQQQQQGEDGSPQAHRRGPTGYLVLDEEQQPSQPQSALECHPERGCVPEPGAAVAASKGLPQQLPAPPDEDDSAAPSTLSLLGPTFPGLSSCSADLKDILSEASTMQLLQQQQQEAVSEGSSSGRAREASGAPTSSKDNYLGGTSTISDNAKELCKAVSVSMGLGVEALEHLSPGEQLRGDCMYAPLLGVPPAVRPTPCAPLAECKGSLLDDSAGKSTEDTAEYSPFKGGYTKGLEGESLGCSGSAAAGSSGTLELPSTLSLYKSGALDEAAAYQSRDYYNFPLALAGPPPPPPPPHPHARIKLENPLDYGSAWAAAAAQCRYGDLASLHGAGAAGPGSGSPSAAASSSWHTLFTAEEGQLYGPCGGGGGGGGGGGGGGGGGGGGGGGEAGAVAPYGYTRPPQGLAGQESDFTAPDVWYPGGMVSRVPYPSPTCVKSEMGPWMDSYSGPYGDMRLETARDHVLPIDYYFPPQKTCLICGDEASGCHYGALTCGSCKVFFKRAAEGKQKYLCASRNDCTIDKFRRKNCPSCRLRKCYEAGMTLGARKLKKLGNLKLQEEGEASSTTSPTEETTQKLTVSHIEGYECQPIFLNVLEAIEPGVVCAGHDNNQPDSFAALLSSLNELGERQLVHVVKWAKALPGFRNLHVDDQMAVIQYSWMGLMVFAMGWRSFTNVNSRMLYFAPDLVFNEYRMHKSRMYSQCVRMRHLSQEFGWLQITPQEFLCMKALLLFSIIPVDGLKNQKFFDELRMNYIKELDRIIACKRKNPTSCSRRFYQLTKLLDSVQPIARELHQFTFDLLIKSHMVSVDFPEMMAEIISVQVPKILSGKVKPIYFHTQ

Molecule: PSA enhancer ARE IV
- K half [1]: < 14 nM

Molecule: PSA enhancer ARE V
- K half [2]: < 1400 nM
- K half [1]: < 14 nM

B1: PSA enhancer ARE VI (dsDNA)
DNA 1: GGATGCTGTGCACAC
DNA 2: GTGTGCACAGCATCC
- binding result [3]: binds

B2: biotinylated ARE affinity oligonucleotide (dsDNA)
DNA 1: TTTCCTTGCAGTACAGCATGTTCTAGC
DNA 2: GCTAGAACATGCTGTACTGCAAGGAAA
- binding result [4]: binds
